# T1: human IL-11Rα on transfected cells (human, UniProt Q14626 23-422)
# T1 sequence: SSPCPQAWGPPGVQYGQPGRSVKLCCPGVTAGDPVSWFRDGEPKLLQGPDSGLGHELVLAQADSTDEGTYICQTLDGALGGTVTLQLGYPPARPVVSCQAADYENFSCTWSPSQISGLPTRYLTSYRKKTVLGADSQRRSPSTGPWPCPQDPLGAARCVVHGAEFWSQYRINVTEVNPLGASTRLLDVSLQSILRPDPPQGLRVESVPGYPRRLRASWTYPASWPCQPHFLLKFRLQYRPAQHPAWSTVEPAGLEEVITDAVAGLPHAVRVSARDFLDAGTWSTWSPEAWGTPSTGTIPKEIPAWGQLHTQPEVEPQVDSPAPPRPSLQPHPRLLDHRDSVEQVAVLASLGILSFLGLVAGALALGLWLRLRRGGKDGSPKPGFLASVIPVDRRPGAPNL
# T2: human IL-11Rα (form used in the assay not stated) (human, UniProt Q14626 23-363, limits assumed)
# T2 construct: also called hIL-11R; hIL-11Rα
# T2 sequence: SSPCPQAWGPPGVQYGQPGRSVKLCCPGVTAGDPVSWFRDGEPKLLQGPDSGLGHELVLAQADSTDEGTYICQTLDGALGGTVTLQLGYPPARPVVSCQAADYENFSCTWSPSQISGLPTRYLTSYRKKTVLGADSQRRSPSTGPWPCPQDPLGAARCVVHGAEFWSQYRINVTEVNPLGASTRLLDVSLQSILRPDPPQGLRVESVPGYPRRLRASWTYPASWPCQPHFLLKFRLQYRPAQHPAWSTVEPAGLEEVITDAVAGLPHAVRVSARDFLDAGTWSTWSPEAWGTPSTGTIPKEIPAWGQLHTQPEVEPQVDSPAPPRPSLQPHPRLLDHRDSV
# Legend:
# [1] = biological target: T1, human IL-11Rα on transfected cells; test: cell-based or functional assay
# [2] = biological target: T2, human IL-11Rα (form used in the assay …); test: Biacore, pH 8.5, 37°C
Binder,Fold increase in potency relative to 8E2 [1] [fold],IC50 [1] [µg/mL],Kd [2] [nM]
"hu8E2-TS-63 (antibody, V domains shown) VH: EVQLLESGGGLVQPGGSLRLSCAASGFTFSWYSMTWVRQAPGKGLEWVSSIVPSGGHTQYADSVKGRFTISRDNSKNTLYLQMNSLRAEDTAVYYCAKGPGWGSFDLWGRGTLVTVSS VL: DIQMTQSPSSLSASVGDRVTITCQASQDINNYLNWYQQKPGKAPKLLIYDASNLQTGVPSRFSGSGSGTDFTFTISSLQPEDIATYYCQQYDTQQPNFGPGTKVDIK",5.1,0.27,0.642
"hu8E2-TS-76 (antibody, V domains shown) VH: EVQLLESGGGLVQPGGSLRLSCAASGFTFWRWSITWVRQAPGKGLEWVSSIVPSGGHTQYADSVKGRFTISRDNSKNTLYLQMNSLRAEDTAVYYCAKGPGWGSFDLWGRGTLVTVSS VL: not shown",3.4,0.32,2.73
"hu8E2-TS-79 (antibody, V domains shown) VH: EVQLLESGGGLVQPGGSLRLSCAASGFTFAWFSVTWVRQAPGKGLEWVSSIVPSGGHTQYADSVKGRFTISRDNSKNTLYLQMNSLRAEDTAVYYCAKGPGWGSFDLWGRGTLVTVSS VL: not shown",5.3,0.21,2.13
"hu8E2-TS-64 (antibody, V domains shown) VH: EVQLLESGGGLVQPGGSLRLSCAASGFTFSWYSMTWVRQAPGKGLEWVSSIVPSGGHTQYADSVKGRFTISRDNSKNTLYLQMNSLRAEDTAVYYCAKGPGWGSFDLWGRGTLVTVSS VL: DIQMTQSPSSLSASVGDRVTITCQASQDINNYLNWYQQKPGKAPKLLIYDASNLQTGVPSRFSGSGSGTDFTFTISSLQPEDIATYYCQQYESQWPQFGPGTKVDIK",5.4,0.26,0.636
"hu8E2-TS-66 (antibody, V domains shown) VH: EVQLLESGGGLVQPGGSLRLSCAASGFTFAWWSIAWVRQAPGKGLEWVSSIVPSGGHTQYADSVKGRFTISRDNSKNTLYLQMNSLRAEDTAVYYCAKGPGWGSFDLWGRGTLVTVSS VL: not shown",0.5,2.84,7.46
"hu8E2-TS-88 (antibody, V domains shown) VH: EVQLLESGGGLVQPGGSLRLSCAASGFTFWRWSTTWVRQAPGKGLEWVSSIVPSGGHTQYADSVKGRFTISRDNSKNTLYLQMNSLRAEDTAVYYCAKGPGWGSFDLWGRGTLVTVSS VL: not shown",3,0.36,2.25
"hu8E2-TS-82 (antibody, V domains shown) VH: EVQLLESGGGLVQPGGSLRLSCAASGFTFWRWSVTWVRQAPGKGLEWVSSIVPSGGHTQYADSVKGRFTISRDNSKNTLYLQMNSLRAEDTAVYYCAKGPGWGSFDLWGRGTLVTVSS VL: not shown",4.3,0.26,2.05
"hu8E2-TS-71 (antibody, V domains shown) VH: EVQLLESGGGLVQPGGSLRLSCAASGFTFWRWSTTWVRQAPGKGLEWVSSIVPSGGHTQYADSVKGRFTISRDNSKNTLYLQMNSLRAEDTAVYYCAKGPGWGSFDLWGRGTLVTVSS VL: not shown",3.8,0.29,2.49
"hu8E2-TS-69 (antibody, V domains shown) VH: EVQLLESGGGLVQPGGSLRLSCAASGFTFGWWSVTWVRQAPGKGLEWVSSIVPSGGHTQYADSVKGRFTISRDNSKNTLYLQMNSLRAEDTAVYYCAKGPGWGSFDLWGRGTLVTVSS VL: not shown",0.9,1.46,3.56
"hu8E2-TS-89 (antibody, V domains shown) VH: EVQLLESGGGLVQPGGSLRLSCAASGFTFWRWSITWVRQAPGKGLEWVSSIVPSGGHTQYADSVKGRFTISRDNSKNTLYLQMNSLRAEDTAVYYCAKGPGWGSFDLWGRGTLVTVSS VL: not shown",1.4,0.12,4.5

# Second part, the binder after the results:
Fold increase in potency relative to 8E2 [1] [fold],IC50 [1] [µg/mL],Kd [2] [nM],Binder
7.4,0.2,1.29,"hu8E2-TS-107 (antibody, V domains shown) VH: EVQLLESGGGLVQPGGSLRLSCAASGFTFSWYSMTWVRQAPGKGLEWVSSIVPWGDFTQYADSVKGRFTISRDNSKNTLYLQMNSLRAEDTAVYYCAKGPGWGSFDLWGRGTLVTVSS VL: not shown"
1.3,0.34,4.73,"hu8E2-TS-91 (antibody, V domains shown) VH: EVQLLESGGGLVQPGGSLRLSCAASGFTFGWWSLTWVRQAPGKGLEWVSSIVPSGGHTQYADSVKGRFTISRDNSKNTLYLQMNSLRAEDTAVYYCAKGPGWGSFDLWGRGTLVTVSS VL: not shown"
1.6,0.26,1.22,"hu8E2-TS-97 (antibody, V domains shown) VH: EVQLLESGGGLVQPGGSLRLSCAASGFTFSWYSMTWVRQAPGKGLEWVSSIVPWADYTQYADSVKGRFTISRDNSKNTLYLQMNSLRAEDTAVYYCAKGPGWGSFDLWGRGTLVTVSS VL: not shown"
2.3,0.18,3.2,"hu8E2-TS-92 (antibody, V domains shown) VH: EVQLLESGGGLVQPGGSLRLSCAASGFTFSWWSITWVRQAPGKGLEWVSSIVPSGGHTQYADSVKGRFTISRDNSKNTLYLQMNSLRAEDTAVYYCAKGPGWGSFDLWGRGTLVTVSS VL: not shown"
2.1,0.19,0.785,"hu8E2-TS-101 (antibody, V domains shown) VH: EVQLLESGGGLVQPGGSLRLSCAASGFTFSWYSMTWVRQAPGKGLEWVSSIVPWGDLTQYADSVKGRFTISRDNSKNTLYLQMNSLRAEDTAVYYCAKGPGWGSFDLWGRGTLVTVSS VL: not shown"
12.7,0.12,1.93,"hu8E2-TS-108 (antibody, V domains shown) VH: EVQLLESGGGLVQPGGSLRLSCAASGFTFSWYSMTWVRQAPGKGLEWVSSIVPWGTLTQYADSVKGRFTISRDNSKNTLYLQMNSLRAEDTAVYYCAKGPGWGSFDLWGRGTLVTVSS VL: not shown"
5.7,0.26,0.735,"hu8E2-TS-115 (antibody, V domains shown) VH: EVQLLESGGGLVQPGGSLRLSCAASGFTFSWYSMTWVRQAPGKGLEWVSSIVPHGDLTQYADSVKGRFTISRDNSKNTLYLQMNSLRAEDTAVYYCAKGPGWGSFDLWGRGTLVTVSS VL: not shown"
5.2,0.28,0.995,"hu8E2-TS-104 (antibody, V domains shown) VH: EVQLLESGGGLVQPGGSLRLSCAASGFTFSWYSMTWVRQAPGKGLEWVSSIVPWGTITQYADSVKGRFTISRDNSKNTLYLQMNSLRAEDTAVYYCAKGPGWGSFDLWGRGTLVTVSS VL: not shown"
4.5,0.33,0.497,"hu8E2-TS-103 (antibody, V domains shown) VH: EVQLLESGGGLVQPGGSLRLSCAASGFTFSWYSMTWVRQAPGKGLEWVSSIVPYGDLTQYADSVKGRFTISRDNSKNTLYLQMNSLRAEDTAVYYCAKGPGWGSFDLWGRGTLVTVSS VL: not shown"

# From patent US20160031999A1 (CSL, published 2016)
